The values below are quoted from earlier work in US9394339B2, “Stabilized formulations of peptides and proteins protecting against non-enzymatic degradation” (Lyotropic Therapeutics, Inc., priority 2007, dated 2016).

Sequences and labels used below:
B1: Dihydropteridine reductase (1HDR): human protein (protein, UniProt P09417 2-244, looked up)
Dihydropteridine reductase: AAAAAAGEARRVLVYGGRGALGSRCVQAFRARNWWVASVDVVENEEASASIIVKMTDSFTEQADQVTAEVGKLLGEEKVDAILCVAGGWAGGNAKSKSLFKNCDLMWKQSIWTSTISSHLATKHLKEGGLLTLAGAKAALDGTPGMIGYGMAKGAVHQLCQSLAGKNSGMPPGAAAIAVLPVTLDTPMNRKSMPEADFSSWTPLEFLVETFHDWITGKNRPSSGSLIQVVTTEGRTELTPAYF
B2: Procathepsin L (1CS8): human protein (protein, UniProt P07711 18-333, looked up)
pro-form: TLTFDHSLEAQWTKWKAMHNRLYGMNEEGWRRAVWEKNMKMIELHNQEYREGKHSFTMAMNAFGDMTSEEFRQVMNGFQNRKPRKGKVFQEPLFYEAPRSVDWREKGYVTPVKNQGQCGSCWAFSATGALEGQMFRKTGRLISLSEQNLVDCSGPQGNEGCNGGLMDYAFQYVQDNGGLDSEESYPYEATEESCKYNPKYSVANDTGFVDIPKQEKALMKAVATVGPISVAIDAGHESFLFYKEGIYFEPDCSSEDMDHGVLVVGYGFESTESDNNKYWLVKNSWGEEWGMGGYVKMAKDRRNHCGIASAASYPTV
modifications: pro-form
B3: Procathepsin K (1BY8): human protein (protein, UniProt P43235 16-329, looked up)
pro-form: LYPEEILDTHWELWKKTHRKQYNNKVDEISRRLIWEKNLKYISIHNLEASLGVHTYELAMNHLGDMTSEEVVQKMTGLKVPLSHSRSNDTLYIPEWEGRAPDSVDYRKKGYVTPVKNQGQCGSCWAFSSVGALEGQLKKKTGKLLNLSPQNLVDCVSENDGCGGGYMTNAFQYVQKNRGIDSEDAYPYVGQEESCMYNPTGKAAKCRGYREIPEGNEKALKRAVARVGPVSVAIDASLTSFQFYSKGVYYDESCNSDNLNHAVLAVGYGIQKGNKHWIIKNSWGENWGNKGYILMARNKNNACGIANLASFPKM
modifications: pro-form
B4: Branched-chain -keto acid dehydrogenase (1DTW): human protein (protein, UniProt P12694 46-445; P21953 51-392, looked up)
2-oxoisovalerate … 1: SSLDDKPQFPGASAEFIDKLEFIQPNVISGIPIYRVMDRQGQIINPSEDPHLPKEKVLKLYKSMTLLNTMDRILYESQRQGRISFYMTNYGEEGTHVGSAAALDNTDLVFGQYREAGVLMYRDYPLELFMAQCYGNISDLGKGRQMPVHYGCKERHFVTISSPLATQIPQAVGAAYAAKRANANRVVICYFGEGAASEGDAHAGFNFAATLECPIIFFCRNNGYAISTPTSEQYRGDGIAARGPGYGIMSIRVDGNDVFAVYNATKEARRRAVAENQPFLIEAMTYRIGHHSTSDDSSAYRSVDEVNYWDKQDHPISRLRHYLLSQGWWDEEQEKAWRKQSRRKVMEAFEQAERKPKPNPNLLFSDVYQEMPAQLRKQQESLARHLQTYGEHYPLDHFDK
2-oxoisovalerate … 2: VAHFTFQPDPEPREYGQTQKMNLFQSVTSALDNSLAKDPTAVIFGEDVAFGGVFRCTVGLRDKYGKDRVFNTPLCEQGIVGFGIGIAVTGATAIAEIQFADYIFPAFDQIVNEAAKYRYRSGDLFNCGSLTIRSPWGCVGHGALYHSQSPEAFFAHCPGIKVVIPRSPFQAKGLLLSCIEDKNPCIFFEPKILYRAAAEEVPIEPYNIPLSQAEVIQEGSDVTLVAWGTQVHVIREVASMAKEKLGVSCEVIDLRTIIPWDVDTICKSVIKTGRLLISHEAPLTGGFASEISSTVQEECFLNLEAPISRVCGYDTPFPHIFEPFYIPDKWKCYDALRKMINY
B5: Carbonic anhydrase IV (1ZNC): human protein (protein, UniProt P22748 19-284, looked up)
Carbonic anhydrase 4: AESHWCYEVQAESSNYPCLVPVKWGGNCQKDRQSPINIVTTKAKVDKKLGRFFFSGYDKKQTWTVQNNGHSVMMLLENKASISGGGLPAPYQAKQLHLHWSDLPYKGSEHSLDGEHFAMEMHIVHEKEKGTSRNVKEAQDPEDEIAVLAFLVEAGTQVNEGFQPLVEALSNIPKPEMSTTMAESSLLDLLPKEEKLRHYFRYLGSLTTPTCDEKVVWTVFREPIQLHREQILAFSQKLYYDKEQTVSMKDNVRPLQQLGQRTVIKS
B6: Purine nucleoside phosphorylase (1ULA): human protein (protein, UniProt P00491 1-289, looked up)
Purine nucleoside …: MENGYTYEDYKNTAEWLLSHTKHRPQVAIICGSGLGGLTDKLTQAQIFDYGEIPNFPRSTVPGHAGRLVFGFLNGRACVMMQGRFHMYEGYPLWKVTFPVRVFHLLGVDTLVVTNAAGGLNPKFEVGDIMLIRDHINLPGFSGQNPLRGPNDERFGDRFPAMSDAYDRTMRQRALSTWKQMGEQRELQEGTYVMVAGPSFETVAECRVLQKLGADAVGMSTVPEVIVARHCGLRVFGFSLITNKVIMDYESLEKANHEEVLAAGKQAAQKLEQFVSILMASIPLPDKAS
B7: Medium chain acyl-coa dehydrogenase (1EGE): human protein (protein, UniProt P11310 26-421, looked up)
Medium-chain specific …: KANRQREPGLGFSFEFTEQQKEFQATARKFAREEIIPVAAEYDKTGEYPVPLIRRAWELGLMNTHIPENCGGLGLGTFDACLISEELAYGCTGVQTAIEGNSLGQMPIIIAGNDQQKKKYLGRMTEEPLMCAYCVTEPGAGSDVAGIKTKAEKKGDEYIINGQKMWITNGGKANWYFLLARSDPDPKAPANKAFTGFIVEADTPGIQIGRKELNMGQRCSDTRGIVFEDVKVPKENVLIGDGAGFKVAMGAFDKTRPVVAAGAVGLAQRALDEATKYALERKTFGKLLVEHQAISFMLAEMAMKVELARMSYQRAAWEVDSGRRNTYYASIAKAFAGDIANQLATDAVQILGGNGFNTEYPVEKLMRDAKIYQIYEGTSQIQRLIVAREHIDKYKN
B8: Transaldolase (1F05): human protein (protein, UniProt P37837 1-337, looked up)
Transaldolase: MSSSPVKRQRMESALDQLKQFTTVVADTGDFHAIDEYKPQDATTNPSLILAAAQMPAYQELVEEAIAYGRKLGGSQEDQIKNAIDKLFVLFGAEILKKIPGRVSTEVDARLSFDKDAMVARARRLIELYKEAGISKDRILIKLSSTWEGIQAGKELEEQHGIHCNMTLLFSFAQAVACAEAGVTLISPFVGRILDWHVANTDKKSYEPLEDPGVKSVTKIYNYYKKFSYKTIVMGASFRNTGEIKALAGCDFLTISPKLLGELLQDNAKLVPVLSAKAAQASDLEKIHLDEKSFRWLHNEDQMAVEKLSDGIRKFAADAVKLERMLTERMFNAENGK
B9: Ribonuclease A (1AFK): human protein (protein, UniProt P61823 27-150, looked up)
Ribonuclease pancreatic: KETAAAKFERQHMDSSTSAASSSNYCNQMMKSRNLTKDRCKPVNTFVHESLADVQAVCSQKNVACKNGQTNCYQSYSTMSITDCRETGSSKYPNCAYKTTQANKHIIVACEGNPYVPVHFDASV
B10: Fructose-1,6-bisphosphatase (1FTA): human protein (protein, UniProt P09467 2-338, looked up)
Fructose-1,6-bisphosphatase 1: ADQAPFDTDVNTLTRFVMEEGRKARGTGELTQLLNSLCTAVKAISSAVRKAGIAHLYGIAGSTNVTGDQVKKLDVLSNDLVMNMLKSSFATCVLVSEEDKHAIIVEPEKRGKYVVCFDPLDGSSNIDCLVSVGTIFGIYRKKSTDEPSEKDALQPGRNLVAAGYALYGSATMLVLAMDCGVNCFMLDPAIGEFILVDKDVKIKKKGKIYSLNEGYARDFDPAVTEYIQRKKFPPDNSAPYGARYVGSMVADVHRTLVYGGIFLYPANKKSPNGKLRLLYECNPMAYVMEKAGGMATTGKEAVLDVIPTDIHQRAPVILGSPDDVLEFLKVYEKHSAQ

The conditions of one data set: aqueous solution, pH 7.4, 37° C., Tris-HCl buffer.
Regarding B1, the “T1/10 (time to 10% degradation by deamidation)” value is 15 days.
Consider B2, for which the “T1/10 (time to 10% degradation by deamidation)” value is 7.3 days.
As to B3, the “T1/10 (time to 10% degradation by deamidation)” value is listed as 4.3 days.
Consider B4, for which the “T1/10 (time to 10% degradation by deamidation)” value is reported as 12 days.
As to B5, the “T1/10 (time to 10% degradation by deamidation)” value is given as 11 days.
For the molecule B6, the “T1/10 (time to 10% degradation by deamidation)” value is 0.27 days.
With B7, the “T1/10 (time to 10% degradation by deamidation)” value is 5.5 days.
For the molecule B8, the “T1/10 (time to 10% degradation by deamidation)” value is listed as 0.21 days.
With B9, the “T1/10 (time to 10% degradation by deamidation)” value was 10 days.

Still in this data set, the particulars now being: buffer, pH 7.4.
B10: the “T1/2 (half-life, deamidation)” value is on record as 59 days.

The same data set, now with this note: pH 7.4.
Turning to B10, the “T1/10 (time to 10% degradation by deamidation)” value is 9.0 days.
